Test [1] concerns the target T1, PP2Ac from IL-2-stimulated TS1αβ cellular extracts (mouse, UniProt P63330 1-309).
T1 construct: Endogenous protein in a cell lysate, detected by immunoblot with anti-PP2Ac antibody
As to the kind of experiment: pull-down of biotinylated peptide on streptavidin beads from TS1αβ cell extracts, anti-PP2Ac immunoblot. The protocol: Control streptavidin-sepharose alone or conjugated to DPT-C9, DPT-C9r, DPT-sh1 or C9 peptides were incubated with IL-2-stimulated cellular extracts form TS1αβ cells (10⁷ cells/point). Identification of unbound proteins in lysates or bound proteins in pull-down experiments was performed by immunoblotting using antibodies against PP2Ac or PP1c.
Biotinylated peptides were preincubated 2 h at 0-100 μM (in final concentration with lysate) at room temperature with 30 μl of streptavidin-coated immunomagnetic beads (Calbiochem, San Diego Calif.). During this time, 10⁷ exponentially growing TS1αβ cells were first washed twice with PBS and then lysed 10 minutes on ice in 400 μl of lysis buffer (50 mM Tris pH7.4, 150 mM NaCl, 20% glycerol, 1% NP-40, 10 mM EDTA, 1 mM PhenylMethylSulfonyl Fluoride, 10 mM NaF, 1 mM orthovanadate, “complete, EDTA-free” protease inhibitor cocktail from Roche).
Lysates were clarified at 13000 g for 10 minutes at 4° C. and were incubated with biotinylated peptides associated with the streptavidin-coated immunomagnetic beads 2 h at 4° C. Biotinylated peptides were pulled down with streptavidin beads and washed two times in 700 μl of lysis buffer on ice. Bound proteins and unbound lysates were then analyzed by SDS-PAGE and Western Blotting using PP1c or PP2Ac antibodies.
Background: In western blotting, separated proteins are transferred to a membrane and probed.

In test [2] the target is T2, caspase-9 from IL-2-stimulated TS1αβ cellular extracts (mouse, UniProt Q8C3Q9 1-454, limits assumed).
T2 construct: Endogenous protein in a cell lysate
T2 sequence (looked up): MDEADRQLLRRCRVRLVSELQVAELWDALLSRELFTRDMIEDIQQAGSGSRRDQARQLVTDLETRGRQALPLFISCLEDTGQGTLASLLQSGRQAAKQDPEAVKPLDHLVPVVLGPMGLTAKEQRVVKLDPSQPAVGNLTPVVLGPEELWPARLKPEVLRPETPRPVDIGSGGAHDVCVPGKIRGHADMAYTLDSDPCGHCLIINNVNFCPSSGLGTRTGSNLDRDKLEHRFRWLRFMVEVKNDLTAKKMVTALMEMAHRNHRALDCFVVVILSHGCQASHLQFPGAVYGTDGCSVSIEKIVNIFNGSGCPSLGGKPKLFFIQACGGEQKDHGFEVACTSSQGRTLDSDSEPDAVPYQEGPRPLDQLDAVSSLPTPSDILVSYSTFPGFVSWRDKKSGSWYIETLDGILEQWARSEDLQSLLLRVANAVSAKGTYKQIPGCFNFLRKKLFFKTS
Put plainly: pull-down of biotinylated peptide on streptavidin beads from TS1αβ cell extracts, immunoblot.

Ends that are not written are not given here. * marks the point of attachment. Biotin = O=C1N[C@H]2[C@H](CS[C@H]2CCCCC(=O)*)N1

T1 sequence (P63330 whole entry): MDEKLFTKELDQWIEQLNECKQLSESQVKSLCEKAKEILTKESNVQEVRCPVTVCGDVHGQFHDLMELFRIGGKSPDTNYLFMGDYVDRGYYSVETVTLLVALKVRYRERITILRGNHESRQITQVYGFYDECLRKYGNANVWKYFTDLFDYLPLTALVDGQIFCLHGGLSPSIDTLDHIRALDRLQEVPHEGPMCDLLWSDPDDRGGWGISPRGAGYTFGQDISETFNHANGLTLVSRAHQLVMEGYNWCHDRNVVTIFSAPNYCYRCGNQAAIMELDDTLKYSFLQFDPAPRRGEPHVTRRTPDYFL

B1: DPT-C9r (peptide)
peptide: Biotin-VKKKKIKREIKILDESRAWQELIGDLTEIY
notes: Biotinylated, held on streptavidin beads in the pull-down
With B1, the binding result in test [1] is “no binding”.

B2: C9 (peptide)
peptide: Biotin-YIETLDGILEQWARSEDL
notes: Synthetic NH2-biotinylated peptide, held on streptavidin beads in the pull-down
On to B2, for which the binding result in test [2] was “no binding”.

B3: DPT-C9 (peptide)
peptide: Biotin-VKKKKIKREIKIYIETLDGILEQWARSEDL
notes: as for B1
As for B3, in test [2], the binding result is given as “no binding”.

B4: DPT-sh1 (peptide)
peptide: Biotin-VKKKKIKREIKI
notes: Penetrating shuttle peptide; origin printed as CK2alpha (human); Biotinylated, held on streptavidin beads in the pull-down; also called shuttle
Consider B4, for which, in test [1], the binding result is reported as “no binding”.

(Values after patent publication US20120021999A1 (published 2012).)
